Results as given in the supplement of paper PMC9170038.

test system: K4 kissing-loop RNA reporter; experiment: apparent KD of K4 kissing-loop reporter; higher = weaker reporter binding; details: Eterna round: R107; input ligand: none
Description: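 RNA-MaP round R107: designed RNA switches with theophylline, tryptophan, arginine or FMN aptamers are transcribed on-chip within common flanks. They are titrated with a labelled K4 kissing-loop RNA reporter in RNA-MaP buffer (100 mM Tris pH 7.5, 80 mM KCl, 4 mM MgCl2), without ligand or with the indicated ligand. Median apparent KD per design.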
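Further: bound reporter read as fluorescence of individual clusters on recovered sequencing chips by microscopy, with normalized cluster intensities fitted with a binding model.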

Sequence	apparent KD of K4 kissing-loop reporter
AAACGCUUGAAUAACAAGCGAAAUAAAAUUCGAGGACCGGUACGGCCGCCACUCGGGCUAACUGCGAGUGAUGUUCGAAAAUAAA [Mat - Mod of OpenEnded 3 - D17]	257 nM
GCCGUACGCAUGGAUACCAGUUGCGAAGUGAUGUUUCGGGCGAUCAAAGGAUCGCCAGACAACCCUUGGCAGCCAUGCGUACGGC	1600 nM
GCCGUACGCAUGGAUACCAGAGAUGUUAAUCUCGAUGCCAGUGAUGUUGGCUUUAGCUAUCUCCCUUGGCAGCCAUGCGUACGGC	909 nM
UUAGAGAUCUCAGGAUAUCAGUGAUGUUGGUUGCCAGAUCUGAGAUAGAAUUCUAUCUCAGAUCAAUGAGAAGGGAGAUCUCAUU [AK4 Exc FMN B]	352 nM
AUCAGUUCAGCUGAUACCAGUCAGGAGUGAUGUUCCUGCUCGCGUCAGCCGCGUCGACAAGACCCUUGGCAGCAGCUCUAAGUGU [theeternabot_exclusion_KL_Theo_B_40]	110 nM
UGAUAGGACAGAAGGAGCGGGAGUGAUGUUCCCAAAGGAAGGUCUAGCAAAGCUGGACCCUCCCAGGUAGGUCGCUGUCCUAUCU [ArgBX 4 #SwitchBubble #StaticStem]	124 nM
AGACUACCACACUGUCAAUAGACAGUGAACUAGGAUAUGCUGAUAAGCAGAAGGAGUGAUGUUCCUAAUAAGGUAGUCAUAUAAU [FmnAX 15 #SwitchBubble #StaticStem #K4Early]	558 nM
AGGUCUGCACGAAGGAGCGCCCUGACAGGUUGCUGCCGUGGGCAGUGAUGUUGCUCAGUCCGGCAGGUAGGUCGCGUGCAGACCU	123 nM
UGAUCUCGGCAGUGAUGUUGCAUAUGAGAAGGAGCGCACGAAAGUGCAGGUAGGUCGCUCAGCCACGACGAAAGUCGCGAGAUCU [#SwitchBubble 3 #K4Early]	155 nM
UUUCGUUUCGUCUGACAUAAUUGGCUAGAAGGAGCGGUAAAAUUACCAGGUAGGUCGCUAGCCCAGUGAUGUUGGGACUAGCGUA [Edries]	114 nM
UGACUGGACUGAAGGAGCGCGAACUCCUAGUGAUGUUAGGAAAUACGAGACAAAGUCUCGACGCAGGUAGGUCGCAGUCUAGUCU [ArgBS 15 #SwitchBubble #StaticStem]	107 nM
UAAUCCUAAUGAUAAUAAUCAAGUGGUGGACGAGGACCGGUACGGCCGCCACUCGAAAAUGCAGUGAUGUUGUAAUACGGAUAAU [Exclusion - Tryptophan A (Freestyle 3)]	372 nM
GGUAGCAUGGCGGCCGCCACUUUUACUGGAUCGGAAACGAUCCAGUAUUGUGUAGUGAUGUUACAAAGGACCGGGCCAUGCUACC	180 nM
UUUUGCUAGCGAAACGCUAGCUUAACAGAUACCAGUCGCGAAAGCGACCCUUGGCAGCUGCUGAGUGAUGUUCAGGUGAGAGUUA	344 nM
UGACUGGACUGAAGGAGCGCUAAACUCCUAGUGAUGUUAGGGAAACAAGACAAAGUCUUGAGGCAGGUAGGUCGCAGUCUAGUCU [FiskerMod 3 - Jieux - Same State - Arginine B]	264 nM
AAAGUGUCAGCACGAGUGAUGUUCGUGGAUACCAGCCUCGAUAAAGGCCCUUGGCAGCCGAAAAGUCAAGGGCUGGCACAUAAAA [KL-XTheo-A11]	251 nM
CGCGCGUGAGGACUUGCCCUUCAUGGAGAUACCAGCCAGUAUGCGGGCCCUUGGCAGCUCGAGUGAUGUUCGAGUUUAAGGCAAA [Riesla]	115 nM
GCUAUGGUAGGAAGGAGCGCUGCCUUGUUUUUACGAGUGAUGUUCGGAAGCAGGGUGUUAAAGCAGGUAGGUCGCCUACUAUAGC [Arginine B K4 23]	160 nM
AAAUAAAUCAGAGGAUAUUCUUCCCACGUCGAAGUACCGUGCUUGAUGGAGUGAUGUUCGAUCAGAGAAGAAGGCUGAUAAAUAA [Same State FMN B GF 19]	917 nM
UAUUAAGUGACGGCCGCCACUAUGGUGAUUUAUUUGUUUGAGUGAUGUUUUGAUGUUUGAUUUUGUAGGACCGGGUUAUGUGUUA [ttttcmullin]	735 nM
AAACGUUGUUGCGAUACCAGCUGAUCGGAAACGAUCAUGCUGGAGUGAUGUUCCAGGAAAAGCCCUUGGCAGCGCAACGACGAAA [MAT - Same State Theophlline B - Mod of Eli - D30]	228 nM
CUUGGAAGGACGGCCGCCACUCGACAGUGAUGUUGUCCGAGUGGGUAGCGCAGUGAUGUUGUGUCGAGGACCGGGUCCUAGGAAU [Exclusion Tryptophan B GF 27]	170 nM

same assay, conditions: Eterna round: R107; input ligand: theophylline 20 uM

Sequence	apparent KD of K4 kissing-loop reporter
GAUUAAUAAGAGGAUACCAGUACUAAUAAAGUACAUUAAUAGUAGAGUGAUGUUCUAUAGUACCCUUGGCAGCUUAGAGUAAGUU [#09 K4 Theophylline B Exclusion]	210 nM
CGUUUAUAGCAGGAUACCAGUACCCAUUAUGUACGUUAAUAGUAGAGUGAUGUUCUAAAGUACCCUUGGCAGCUUCCCGUGACCC [ExTheophylB.Y]	176 nM
GCGCGUCAUGUCAGCGGUGACACUGUCGAUACCAGUGCCGUAAGGCGCCCUUGGCAGCGACGUGCUGGAGUGAUGUUCCAGCGUU [#2 Exclusion - Theophylline A Attempt #31 (HarryS)]	154 nM
AAUUUACAUUAAUUAUUUAAAGGUUCAGAAGGAGCGUGAAUUAACACAGGUAGGUCGCUGAGCGAGUGAUGUUCGCUAUAUACUA [JR_ExcArginiA_Sub003]	91.1 nM
AGAUUCGACACGGCCGCCACUCGUGGAUCUUGGUUGAGAGAUGAAAUAGAGUGAUGUUCUAAUACGAGGACCGGGUGUUGAGUCU [KL-SSTryp-B23]	177 nM
